Here are results for one protein from PMC9409278, “Conformational Changes of α-Crystallin Proteins Induced by Heat Stress” (International Journal of Molecular Sciences, 2022).

The data set concerns the molecule itself. Kind of data set: SEC; HiPrep Sephacryl S-300 HR 16/60 column, 20 mM phosphate buffer, pH 7.4, 150 mM NaCl; each crystallin alone. Background: Size exclusion chromatography separates by hydrodynamic size, large species first.

B1: αB crystallin (natural protein, human, UniProt P02511 1-175, looked up)
chain: MDIAIHHPWIRRPFFPFHSPSRLFDQFFGEHLLESDLFPTSTSLSPFYLRPPSFLRAPSWFDTGLSEMRLEKDRFSVNLDVKHFSPEELKVKVLGDVIEVHGKHEERQDEHGFISREFHRKYRIPADVDPLTITSSLSSDGVLTVNGPRKQVSGPERTIPITREEKPAVTAAPKK
notes: αB crystallin, human, open reading frame of the full-length gene in pET28; Homo-oligomer in solution; No removal of the His tag is mentioned; also called alpha-B crystallin; source: E. coli BL21(DE3), purified (Ni-NTA, size-exclusion chromatography)
For B1, the binding result is “binds”.
